Measurements: article PMC5349785 (Molecular Biology of the Cell, 2017)

What was measured:
[1] = target: T1, Vps35 with C-terminal TAP tag (S. cerevisiae, UniProt P34110 1-944); test: tandem affinity purification
T1 sequence: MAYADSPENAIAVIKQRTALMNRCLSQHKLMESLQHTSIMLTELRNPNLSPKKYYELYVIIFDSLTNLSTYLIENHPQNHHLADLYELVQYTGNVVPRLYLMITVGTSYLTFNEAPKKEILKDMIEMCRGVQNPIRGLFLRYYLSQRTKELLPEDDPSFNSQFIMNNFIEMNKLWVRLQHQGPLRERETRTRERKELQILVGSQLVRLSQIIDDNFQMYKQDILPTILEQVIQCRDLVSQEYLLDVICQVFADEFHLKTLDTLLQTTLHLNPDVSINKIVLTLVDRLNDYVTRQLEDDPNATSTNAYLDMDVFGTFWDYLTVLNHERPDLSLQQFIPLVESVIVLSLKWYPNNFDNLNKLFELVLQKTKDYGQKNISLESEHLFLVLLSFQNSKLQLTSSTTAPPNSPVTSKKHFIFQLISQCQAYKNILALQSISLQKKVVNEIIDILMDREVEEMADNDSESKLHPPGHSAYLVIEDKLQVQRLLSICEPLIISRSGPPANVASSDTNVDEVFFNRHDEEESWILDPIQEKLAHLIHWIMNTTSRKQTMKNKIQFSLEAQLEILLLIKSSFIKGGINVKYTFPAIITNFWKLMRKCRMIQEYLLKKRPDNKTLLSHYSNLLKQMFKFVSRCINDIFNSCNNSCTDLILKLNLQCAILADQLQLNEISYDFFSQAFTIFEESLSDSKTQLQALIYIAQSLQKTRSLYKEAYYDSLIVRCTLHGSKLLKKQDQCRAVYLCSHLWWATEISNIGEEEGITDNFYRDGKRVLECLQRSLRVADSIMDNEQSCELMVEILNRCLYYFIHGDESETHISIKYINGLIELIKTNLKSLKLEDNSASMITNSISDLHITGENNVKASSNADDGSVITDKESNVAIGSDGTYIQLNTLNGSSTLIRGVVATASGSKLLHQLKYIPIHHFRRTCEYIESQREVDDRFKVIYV

[2] = target: T2, CSC with GFP-tagged Vps29 (CSC-GFP) (S. cerevisiae, UniProt P34110;P40335;P38759); test: recruitment to giant unilamellar vesicles
[3] = target: T3, Vps5 with C-terminal TAP tag (S. cerevisiae, UniProt Q92331 1-675); test: tandem affinity purification
T3 sequence: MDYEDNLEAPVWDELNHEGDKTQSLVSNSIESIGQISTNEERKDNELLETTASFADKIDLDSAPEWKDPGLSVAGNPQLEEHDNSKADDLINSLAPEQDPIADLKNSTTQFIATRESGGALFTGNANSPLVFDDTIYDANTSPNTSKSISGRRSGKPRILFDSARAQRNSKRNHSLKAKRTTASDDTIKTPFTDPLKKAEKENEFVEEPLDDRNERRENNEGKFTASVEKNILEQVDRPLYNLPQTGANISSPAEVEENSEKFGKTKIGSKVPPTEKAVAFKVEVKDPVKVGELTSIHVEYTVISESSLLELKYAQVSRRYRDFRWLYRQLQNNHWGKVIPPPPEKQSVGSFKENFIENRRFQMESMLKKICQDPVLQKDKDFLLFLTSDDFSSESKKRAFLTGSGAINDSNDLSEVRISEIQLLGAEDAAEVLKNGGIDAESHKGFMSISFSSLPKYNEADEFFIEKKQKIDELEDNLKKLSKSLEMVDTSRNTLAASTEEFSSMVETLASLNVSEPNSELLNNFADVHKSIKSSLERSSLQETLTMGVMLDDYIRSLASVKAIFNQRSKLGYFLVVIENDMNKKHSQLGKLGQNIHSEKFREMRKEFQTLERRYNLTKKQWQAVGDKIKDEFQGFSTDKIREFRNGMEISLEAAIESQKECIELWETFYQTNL

[4] = target: T2, CSC with GFP-tagged Vps29 (CSC-GFP); test: pull-down
[5] = target: cargo selection complex (CSC; Vps35, Vps26, Vps29) (S. cerevisiae, UniProt P34110;P40335;P38759); test: pull-down

B1: Vps26 (natural protein)
chain: MSIFFKPPIDIEILFDNEESRKHVDIATRSSNSSYKSMKESLPVYEDGESLGGIVTLRVRDSKKVDHLGIKVSVIGSIDMLKSHGSGNSSSKKVTSSTSSSSSNGSVDVRKNSVDQFLCQSYDLCPAGELQHSQSFPFLFRDLSKRYESYKGKNVDVAYYVKVTVMRKSTDISKIKRFWVYLYNSVTTAPNTLSANETKATTNDIAGGNYAADNASDNTQTKSTQGEAADVNQVLPISHSNNEPKPVRLDIGIENCLHIEFEYAKSQYSLKEVIVGRIYFLLTRLRIKHMELSLITRESSGLQTSNVMTDSTAIRYEIMDGSSVKGETIPIRLFLSGYDLTPNMSCNYFNVKNYLSLVIIDEDGRRYFKQSEITLYRTR
B1: binds [1].

B2: SNX-BAR complex (Vps5-Vps17 heterodimer) (complex)
chain 1: MDYEDNLEAPVWDELNHEGDKTQSLVSNSIESIGQISTNEERKDNELLETTASFADKIDLDSAPEWKDPGLSVAGNPQLEEHDNSKADDLINSLAPEQDPIADLKNSTTQFIATRESGGALFTGNANSPLVFDDTIYDANTSPNTSKSISGRRSGKPRILFDSARAQRNSKRNHSLKAKRTTASDDTIKTPFTDPLKKAEKENEFVEEPLDDRNERRENNEGKFTASVEKNILEQVDRPLYNLPQTGANISSPAEVEENSEKFGKTKIGSKVPPTEKAVAFKVEVKDPVKVGELTSIHVEYTVISESSLLELKYAQVSRRYRDFRWLYRQLQNNHWGKVIPPPPEKQSVGSFKENFIENRRFQMESMLKKICQDPVLQKDKDFLLFLTSDDFSSESKKRAFLTGSGAINDSNDLSEVRISEIQLLGAEDAAEVLKNGGIDAESHKGFMSISFSSLPKYNEADEFFIEKKQKIDELEDNLKKLSKSLEMVDTSRNTLAASTEEFSSMVETLASLNVSEPNSELLNNFADVHKSIKSSLERSSLQETLTMGVMLDDYIRSLASVKAIFNQRSKLGYFLVVIENDMNKKHSQLGKLGQNIHSEKFREMRKEFQTLERRYNLTKKQWQAVGDKIKDEFQGFSTDKIREFRNGMEISLEAAIESQKECIELWETFYQTNL
chain 2: MTSAVPYDPYDDLDNNPFAEPQEEDSEPAATTTDGSSSMSEERVGTEQTAASVQDNGTANNIQNGLGEEGNATRSKTSNEHNENQQPSQPSERVILPERSDEKKKYTLLAKVTGLERFGSATGKKENPTIIFDCSTNLPTFRKQQYKNVKKSYEEFHQLFKYLNVAIQESFVPTLPSAYTTFGINSEEDRMKVTRNFQLWFNRLSQDPLIIRNEEVAFFIESDFNTYTPINKSKSLASGLKRKTLKQLAPPYDEITELAEFRPLVKSIYVVSQSLQEKLLRVSRNRKMMVQEENAFGQDFVNLDEHNKLYRRYGKILTAVGDIDSIIATMDMATLYDGLEWIVRDAYAVKEALTNRHFIMRNLVQAQQNSKAKQEQARRFRSRRDINPMKIDEALRQLKAAAKNEQVLTLKLQRITSNMIIERKQWISWYEEWIRSSIKEFTLRKIEYERKKLTLLERVRSDIRKADENGGLSRLGRHAVSNNNSDTSQTLKGDSWTGESNRKSQIPINKIAHTEFDDELFTEDDGYNSQDSDTTSLNARHAASLLGMSTK
B2: binds [2].

B3: cytosolic domain of Vps10 (residues 1415-1579), His-tagged (domain or fragment)
chain: YDRGIRRNGGFARFGEIRLGDDGLIENNNTDRVVNNIVKSGFYVFSNIGSLLQHTKTNIAHAISKIRGRFGNRTGPSYSSLIHDQFLDEADDLLAGHDEDANDLSSFMDQGSNFEIEEDDVPTLEEEHTSYTDQPTTTDVPDTLPEGNEENIDRPDSTAPSNENQ
modifications: Cy5 label (Cyc-5 amine derivative) in Figures 3 and 4
B3: binds [2].

B4: fluorescently labeled Ypt7 without His tag (natural protein)
chain: MSSRKKNILKVIILGDSGVGKTSLMHRYVNDKYSQQYKATIGADFLTKEVTVDGDKVATMQVWDTAGQERFQSLGVAFYRGADCCVLVYDVTNASSFENIKSWRDEFLVHANVNSPETFPFVILGNKIDAEESKKIVSEKSAQELAKSLGDIPLFLTSAKNAINVDTAFEEIARSALQQNQADTEAFEDDYNDAINIRLDGENNSCSC
modifications: fluorescent label: ATTO (legend of Figure 5); DY-647 maleimide derivative (methods)
B4: binds [2].

B5: Vps29 (natural protein)
chain: MLLLALSDAHIPDRATDLPVKFKKLLSVPDKISQVALLGNSTKSYDFLKFVNQISNNITIVRGEFDNGHLPSTKKDKASDNSRPMEEIPMNSIIRQGALKIGCCSGYTVVPKNDPLSLLALARQLDVDILLWGGTHNVEAYTLEGKFFVNPGSCTGAFNTDWPIVFDVEDSDEAVTSEVDKPTKENQSEDDDAKGGSTGKEQPGSYTPKEGTAGERENENESNVKPENQFKEDEVDMSDSDINGSNSPSFCLLDIQGNTCTLYIYLYVNGEVKVDKVVYEKE
B5: binds [1].

B6: Vps17 (natural protein)
chain: MTSAVPYDPYDDLDNNPFAEPQEEDSEPAATTTDGSSSMSEERVGTEQTAASVQDNGTANNIQNGLGEEGNATRSKTSNEHNENQQPSQPSERVILPERSDEKKKYTLLAKVTGLERFGSATGKKENPTIIFDCSTNLPTFRKQQYKNVKKSYEEFHQLFKYLNVAIQESFVPTLPSAYTTFGINSEEDRMKVTRNFQLWFNRLSQDPLIIRNEEVAFFIESDFNTYTPINKSKSLASGLKRKTLKQLAPPYDEITELAEFRPLVKSIYVVSQSLQEKLLRVSRNRKMMVQEENAFGQDFVNLDEHNKLYRRYGKILTAVGDIDSIIATMDMATLYDGLEWIVRDAYAVKEALTNRHFIMRNLVQAQQNSKAKQEQARRFRSRRDINPMKIDEALRQLKAAAKNEQVLTLKLQRITSNMIIERKQWISWYEEWIRSSIKEFTLRKIEYERKKLTLLERVRSDIRKADENGGLSRLGRHAVSNNNSDTSQTLKGDSWTGESNRKSQIPINKIAHTEFDDELFTEDDGYNSQDSDTTSLNARHAASLLGMSTK
B6: binds [3].

B7: GST-tagged Ypt7 (natural protein)
chain: MSSRKKNILKVIILGDSGVGKTSLMHRYVNDKYSQQYKATIGADFLTKEVTVDGDKVATMQVWDTAGQERFQSLGVAFYRGADCCVLVYDVTNASSFENIKSWRDEFLVHANVNSPETFPFVILGNKIDAEESKKIVSEKSAQELAKSLGDIPLFLTSAKNAINVDTAFEEIARSALQQNQADTEAFEDDYNDAINIRLDGENNSCSC
B7: binds [4]; binds [5].
